B1: TRIM39 (parent)
chain: YPCVLATEGFTSGRHYWEVEVGDK
B2: TRIM15 (parent)
chain: LLARLRELEQQIWKERDEYITKVS
B3: PRIM1 (parent)
chain: CCSSADICPKCWTLMTMAIRIIDR

Variants of: B1
Assay: protein stability index of a GFP-peptide fusion (GPS, HEK-293T) (PSI 1-6); higher = more stable
Details: c terminus: a fixed tail appended
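Note: lentivirally expressed fusions sorted by FACS into six bins by GFP to DsRed ratio, PSI derived from sequencing read proportions per bin multiplied by bin number.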

Protein stability index, by site and new letter:
D23: Q 2.44; R 1.45; S 1.76; T 2.32; V 1.65; Y 1.91
K24: A 1.28; C 2.21; D 1.07; E 2.66; F 2.23; G 1.92; H 1.57; I 2.65; L 2.05; M 1.95; N 2.1; P 2.16; Q 1.7; R 1.75; S 1.87; T 2.36; V 1.96; W 1.96; Y 2.5

Variants of: B2
Assay: as above
Details: c terminus: a fixed tail appended

Protein stability index of substitutions, site by site:
L1: A 1.79; C 1.84; D 2.31; E 2.2; F 1.55; G 1.55; H 2.19; K 2.05; M 1.03; N 3.22; P 2.37; Q 2.83; R 1.87; S 2.12; T 1.63; Y 2.35
L2: A 2.12; C 1.6; D 2.55; E 1.38; F 1.67; G 1.9; H 2.13; I 1.65; K 1.25; M 1.49; N 2.18; P 3.13; Q 1.22; S 2.34; T 2.56; V 1.74; W 2.23; Y 4.12
A3: C 2.64; D 2.18; E 3.27; F 2.9; G 1.44; H 1.46; L 2; M 2.34; P 1.99; Q 1.9; S 1.69; T 2.2; V 2.49
R4: F 1.73; G 2.56; M 2.36; N 1.58; P 1.6; Q 1.74; S 1.78; W 2.67; Y 1.92
L5: A 1.91; D 2.44; E 2.96; F 2.17; G 2.6; H 2.72; I 2.98; M 1.83; N 2.43; P 2.65; Q 2.64; R 2.28; S 3.44; T 2.44; V 2.95; W 1.34; Y 1.77
R6: C 1.8; D 1.79; E 1.82; H 1.65; K 2.13; P 2.44; Q 1.44; S 2.56; T 1.76; V 3.95
E7: C 2.53; D 1.6; I 1.03; L 2.97; N 1.84; P 2.57; Q 1.61; R 1.07; T 3.56; V 3.16; Y 3.38
L8: A 1.14; C 1.49; D 2.48; E 2.24; G 2.9; H 2.12; I 2.51; K 3.04; N 2.03; P 2.55; R 1.44; S 1.75; T 2.74; V 1.69; W 1.62; Y 2.22
E9: C 2.11; D 3.17; F 3.06; H 1.45; I 1.96; K 1.62; L 1.8; N 1.94; P 2.29; Q 1.07; R 2.22; T 3.38; W 1.69; Y 1.59
Q10: D 2.21; E 1.51; F 3.2; G 1.58; I 2.65; K 2.02; M 3.32; N 2.35; P 1.4; R 2.02; S 1.18; T 1.09; V 2.31; W 3.11
Q11: A 1.98; D 2.36; E 1.01; G 1.41; H 1.98; M 1.08; N 1.68; P 1.62; R 2.29; S 2.51; V 2.12; W 1.08; Y 1.88
I12: A 1.88; C 1.42; D 2.75; E 2.38; F 2.15; H 1.8; L 1.67; M 3.6; N 1.24; P 1.77; Q 2.34; R 2.21; S 1.35; V 1.65; W 1.43; Y 2.13
W13: A 1.52; C 2.68; E 2.03; F 2.83; G 2.31; H 1.37; I 1.32; K 2.24; L 1.71; P 1.81; Q 2.46; R 1.77; S 1.68; T 1.69; V 1.96; Y 1.51
K14: A 1.24; E 1.05; F 1.68; H 1.67; I 2.26; L 2.06; N 1; P 2.2; T 2.85
E15: A 1.28; D 2.08; F 2.15; G 1.18; I 1.42; L 2.15; N 1; Q 1.47; R 1.05
R16: A 1.78; C 2; E 2; H 1; K 1.92; L 3.68; M 1.61; Q 1.58; Y 2.13
D17: E 1.78; L 1.04; N 1; P 1.86; Q 3.32; R 2.14; T 2.08; Y 3.07
E18: G 1.81; M 2.33; N 2.08; Q 1.18
Y19: D 2.12; E 1.39; L 1.98; M 2.21; N 1.91; P 1.55; Q 2.13; S 1.71; T 1.67; W 2.07
I20: A 1.3; C 1.08; D 2.11; E 4.11; F 3.15; G 2.17; H 2.12; K 2.1; L 1.33; M 1.71; N 1.63; P 1.6; Q 2.09; R 2.91; S 2.18; Y 3.1
T21: A 2.07; D 1.32; H 1.49; I 2.45; K 1.48; L 2.39; N 1.7; P 2.59; Q 2.41; W 2.63; Y 2.02
K22: A 2.38; C 1.94; D 1.97; F 1.72; G 2.25; I 1.78; N 1.38; P 1.23; R 2.46; T 1.43; V 1.97; W 2.06; Y 1.9
V23: A 1.5; C 2.1; D 3.9; F 1.69; H 1.86; I 1.86; L 2; M 2.03; N 1.64; P 1.26; Q 1.71; R 1.57; S 2.25; T 1.63; W 1.7; Y 2.4
S24: A 1.63; C 2.05; D 3.02; E 1.38; F 1.51; H 2.29; I 2.42; K 1.44; L 1.95; M 2.12; N 1.52; P 1.82; R 1.93; T 1.31; V 3; Y 2.94

Variants of: B3
Assay: as above
Details: c terminus: a fixed tail appended

Protein stability index: each site, then its substitutions
C1: D 2.01; E 1.6; F 1.5; G 1.88; H 1.87

Reference: the supplement of paper PMC10567573
